The source of these data is doi:10.1101/2020.12.15.422856 (bioRxiv, 2020).

This data set deals with the molecule itself. The experiment in a line: SEC. Background: Size exclusion chromatography separates by hydrodynamic size, large species first.

B1: Mer2 (wild-type, full-length) (natural protein)
chain: MVARGRTDEISTDVSEANSEHSLMITETSSPFRSIFSHSGKVANAGALEESDKQILEWAGKLELESMELRENSDKLIKVLNENSKTLCKSLNKFNQLLEQDAATNGNVKTLIKDLASQIENQLDKVSTAMLSKGDEKKTKSDSSYRQVLVEEISRYNSKITRHVTNKQHETEKSMRCTQEMLFNVGSQLEDVHKVLLSLSKDMHSLQTRQTALEMAFREKADHAYDRPDVSLNGTTLLHDMDEAHDKQRKKSVPPPRMMVTRSMKRRRSSSPTLSTSQNHNSEDNDDASHRLKRAARTIIPWEELRPDTLESEL
Regarding B1, the binding result is recorded as “binds”.
